# Measured values reported in paper PMC7866087, “Evaluation of Computationally Designed Peptides against TWEAK, a Cytokine of the Tumour Necrosis Factor Ligand Family” (International Journal of Molecular Sciences, 2021).
# B1: tumour necrosis factor-like weak inducer of apoptosis (protein, UniProt O43508 94-249, looked up)
# Tumor necrosis factor ligand …: SAPKGRKTRARRAIAAHYEVHPRPGQDGAQAGVDGTVSGWEEARINSSSPLRYNRQIGEFIVTRAGLYYLYCQVHFDEGKAVYLKLDLLVDGVLALRCLEEFSATAASSLGPQLRLCQVSGLLALRPGSSLRIRTLPWAHLKAAPFLTYFGLFQVH
# Columns and labels:
# [1] = system: 435-Br1 cells, TNFR2F12A gene expression; assay: Fn14 gene expression with TWEAK, 435-Br1 (RT-PCR); type: cell-based, human; conditions: for Normalized level of expression of Fn14 gene: 435-Br1, TWEAK 25 ng/ml
# Method: Figure 1 Characterization TWEAK-dependent/not dependent cells. (A) Representative images of Fn14 expression (pink) in BRV5, 435-P and HT29 cells labelled by immunofluorescence. The protein has similar expression in BRV5 and the positive control HT29 cells, and less expressed in 435-P. DAPI (blue) was used for nucleus identification. (B) RT-PCR analysis to quantify Fn14 gene expression of cells cultured in the presence (dark green) or absence (light green) of TWEAK (25 ng/mL) at 48 h. Up-regulation of Fn14 is observed only in HT29 and BRV5 cells. Bars and error bars represent the average and standard deviation as calculated from three replicates respectively. P values represented as: * - significant (Pvalue: 0.01 to 0.05) and **- very-significant (Pvalue: 0.001 to 0.01).
# Since the transcriptional activation of Fn14 expression can be induced in cancer cells by the TWEAK-Fn14 interaction, either in a paracrine or autocrine manner, we investigated whether TWEAK transactivates Fn14 (TNFR2F12A) in BRV5 brain metastatic cells. We primed cells with TWEAK and analysed TNFR2F12A gene expression including in the analysis 435-Br1 cells, the first generation of brain metastatic cells BRV5.
# Three different cell lines were used in this study: BRV5, MDA-MB 435 (435-P), and HT29. The BRV5 is a highly metastatic brain cell line, obtained in one of our laboratories by primary culture from a brain of a nude mouse inoculated with human 435-Br1 brain metastatic cells, as previously described and used as a model to test the peptides in cell cultures. […] The triple negative 435-P cell line is a useful human breast cancer model that expresses both epithelial and melanocytic markers, and was included as the parental cell from which 435-Br1 metastatic variant was initially originated (both cell lines kindly provided by Dr Fabra at IDIBELL Institute, Hospitalet de Llobregat, Spain). Finally, HT29 human colon carcinoma cells obtained from the European Type Culture Collection (ECACC 91072201) were used as a positive control of TWEAK dependent Fn14 over-expressing cells to evaluate TWEAK-Fn14 axis of brain metastatic variants.
# [2] = system: BRV5 cells, NIK expression; assay: Time-course RT-PCR of NIK (MAP4K4), BRV5; type: cell-based, human; conditions: TWEAK, 6 to 24 h
# Source text: The final aspect to consider in the characterization of BRV5 cells prior to the screening of peptides was to assess when the signalling pathway mediated by TWEAK-Fn14 will be at its peak of activity. To that end, we monitored the level of expression of the primary kinase NIK (MAP4K4) at different time points. It has been reported that transcriptional activation of Fn14 would be operated mainly by the NF-κB non-canonical pathway, through inducing the primary kinase NIK (MAP4K4) that phosphorylates IKKα [26]. Thus, we assessed the level of expression of NIK from 6 to 24 h after cells were treated with TWEAK in a time-course RT-PCR (Figure 2). […] From these experiments we concluded that TWEAK-Fn14 pathway is mainly activated at 6 h after treating cells, and thus we designed out experiments to check the inhibitory ability of the peptides at this specific time point.
# Figure 2 NIK activation in brain metastatic cells. Metastatic cells were primed with TWEAK in a time-course RT-PCR experiment. […] Bars and error bars represent the average and standard deviation as calculated from three replicates respectively.
molecule,measurement,setting,value
B1,Normalized level of expression of Fn14 gene,[1]; technical replicate 1,0.1600
same,Normalized level of expression of Fn14 gene,[1]; technical replicate 2,0.1676
same,Normalized level of expression of Fn14 gene,[1]; technical replicate 3,0.1719
same,TNFR2F12A gene expression,"[1]; TWEAK 25 ng/mL, 48 h, 435-Br1",no differences were found
same,NIK expression,[2],"increased in TWEAK stimulated BRV5 cells after 6 h of treatment, decreasing at 12 h and partially recovered at 24 h"
